Laboratory results taken from PMC5771957.

Biological target: T1, CCDC103 (wildtype), N-terminal His10 tagged (H. sapiens), Q8IW40
T1 chain: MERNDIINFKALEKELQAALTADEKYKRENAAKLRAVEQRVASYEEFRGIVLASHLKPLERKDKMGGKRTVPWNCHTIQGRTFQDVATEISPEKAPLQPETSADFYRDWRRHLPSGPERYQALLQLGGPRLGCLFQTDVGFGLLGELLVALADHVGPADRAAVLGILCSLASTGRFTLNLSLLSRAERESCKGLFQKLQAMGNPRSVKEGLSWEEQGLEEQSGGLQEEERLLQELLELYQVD
Assay: SEC
Conditions: remark: other sources report otherwise

stoichiometry N: 2
B1: CCDC103 (wildtype), N-terminal His10 tagged, Q8IW40 1-242 (natural protein)
chain: T1 chain
